# The DeepSol protein solubility set
# Assay: soluble on expression in E. coli; label from the status in PepcDB or PDB records
row,Sequence,soluble on expression in E. coli
1,MAEIQFSKGVAETVVPEVRLSKSKNGQSGMAKFYFLEPTILAKESTDDITGMYLIDDEGEIITREVKGKFINGRPTAIEATVILNSQPEWDRFMRFMERYGAENGLGFSKSELEHHHHHH,soluble
2,MAEKKLLLGDEAIALGAIHAGISGVYAYPGTPSTEITEFIQNNRLAKERKLHSTWCTNEKTAMEAALGMSYAGKRALVCMKHVGMNVAADAFVNSAITGVNGGLVVLAADDPSMHSSQNEQDSRFYGKFAMIPMLEPSSQQEAYDMMDYAYTLSEKLKLPVLMRVVTRLAHSRAGVEVADIREENQLNPD,soluble
3,MAELEKTFALIKPDAVRAGKAQEIMQLIELNGFTIIAKQKLQLTRARAEEFYGEHKGKEFFPKLVNFMTSGPIWALVLAKPGAILAWRALMGPTNVFKARAEQPKCLRALYGTDGTQNATHGSDSPISAAREIKFFFPTLSGDPTIYAEPTAAAEYITKRIQPALAKALAALAREKPSADKFEAITFVAGYLLQNNPNKPKVLMPDEWDPALMGDDEDDEADFINARLAAPTGNDGATKAEFDAMVEAAKADTGGAAPAQEFVYPDSKPTTPVVPAPPAPGSKPPSASGARPQSARPTSARPPSASAAPPAPLAPVPPPASSSRPASGSGRPPSATARPPSATPPPPPPAVELEEADDPAQLDEAATKVQAAFRGYQARKEVAVMRSEAQPGEAAAEPEQEAELQPEAEPEPQPEGEQEPQPQASASSSFLPDGVTEEMAAEAATRVQAHMRGHLARKQVAAIKAQQAAPAVAESSEALAEPEPQPEAEAEPQPQASVSSSFLPDGVTEEMAAEAATLVQAHMRGHLARKQVAAIKAQQAAPAVAESSEAQAEAEQTEAEAEPQPDAEAEAGAAEGEAEPEPEAAE,not soluble
4,MAEPKYAIIINDIKRLISDGTFKPGEKIYSEDELKKKYNVSNTTVVRALHELVRAGILARYQGKGTYVSKSIINEEVIFNEYTTVPNGKFNRKTKIANEHTKVVAINEIQDARIAKNLQIPPENMIVHFQRIRLIDDVPWTVQNNYMAKANLINVDLTNFERFNSLSEVIKELYGINILHEAMKERIQVEFPVKDKNNFKLLEIDSELPLYHIERITYVPEGQPYEYIESYLRHNFYSIEIEKKKQ,not soluble
5,MAEQLEFFPVASPCRGICQSDERGFCRGCMRSRDERFNWQKMSDVEKQNVLRLCRQRFLRKIRANKPLPSEDPQQPSLF,not soluble
6,MAEQLSPGKAVDQVCTFLFKKPGRKGAAGRRKRPACDPEPGESGSSSDEGCTVVRPEKKRVTHNPMIQKTRDSGKQKAAYGDLSSEEEEENEPESLGVVYKSTRSAKPVGPEDMGATAVYELDTEKERDAQAIFERSQKIQEELRGKEDDKIYRGINNYQKYMKPKDTSMGNASSGMVRKGPIRAPEHLRATVRWDYQPDICKDYKETGFCGFGDSCKFLHDRSDYKHGWQIERELDEGRYGVYEDENYEVGSDDEEIPFKCFICRQSFQNPVVTKCRHYFCESCALQHFRTTPRCYVCDQQTNGVFNPAKELIAKLEKHRATGEGGASDLPEDPDEDAIPIT,soluble
7,MAESVEKLEDGIVRSAEQVSSQIRAAKDAIASVIFGQDRVIENTLVTILSGGHALLIGVPGLAKTKLVETLGVTLGLDAKRIQFTPDLMPSDILGAEVLDESTAGKRSFRFIAGPVFAQLLMADEINRASPRTQSALLQAMQEQHITVAGARHDLPKPFHVLATQNPLEQEGTYPLPEAQLDRFLMEIDVDYPDRDAERRILFETTGAEETLAKGSMTADALITAQRLIRRLPVGDSVVEAILSLVRSARPGPDSGETGKFIAWGPGPRASQSLMLAVRARALIDGRLAPSVDDVLDLAEPILKHRMALTFQARAEGRTIPDVIRQLKTRIGLEHHHHHH,soluble
8,MAFALWYSLQERAPVVERSLKVPLQVVGLGEGRRALGLPREVLLRLRGPAPLLEGRALPVSAYLDLSGAEGEVVREVRVAAPQGVEVLEVVPARVGVVVEVEAQRQIPVEVLAQGAWVLTDPAFVEAVGPESQVEAAVSAVGLDLGDEVVLFPFGPEGPLEGVELRPNRVRVVERREALFLKEVPLSLKPPPGRRLLDYAPKTVRLVGPREALEGLAGVAATLQEALGPGEVEVAVAPDLPPGVQTLGPVRVRVALE,soluble
9,MAFFRNCDPDDPLCIDECRLQKFEYLRWVRLLPSGDEDVLSYCASIGARLGKSEGYVSRRIDAFSMLLELSKVHELQLKMWHLDITRLMVIAQALSGVEKEVIEEIDAPLARFLTPKRDNQKMPGPKVIKKFIVDLLVRVEDAVEEVDSPQELAIDFYDAGNGKTGINAVVDNATASIFRDQLMRLAKAYECDDSSALLLMATQEGKSLTINLYKGDNFGELMTADGYRLSRKSVDLVFPNASRRSLEGVENVETRGYSFTPSMRAYIQARDGVCRFPGCSIRAVNCDIDHVEEYGLGGKTTARNAQCLCRRHHNLKTSKAVDCEISGDASVSWILEDGTKVVTLPEGIFSADRLFGQTFAQRVVDRIRRRKLRMRKNSCDDVPF,not soluble
10,MAFNDCFSLNYPGNPCPGDLIEVFRPGYQHWALYLGDGYVINIAPVDGIPASFTSAKSVFSSKALVKMQLLKDVVGNDTYRINNKYDETYPPLPVEEIIKRSEFVIGQEVAYNLLVNDCEHFVTLLRYGEGVSEQANRAISTVEFVTAAVGVFSFLGLFPKGQRAKYY,not soluble
11,MAFPRTLAILAAAAALVVACSHGGTPTGSSTTSGASPATPVAVPVPRSCAEPAGIPALLSPRDKLAQLLVVGVRDAADAQAVVTNYHVGGILIGSDTDLTIFDGALAEIVAGGGPLPLAVSVDEEGGRVSRLRSLIGGTGPSARELAQTRTVQQVRDLARDRGRQMRKLGITIDFAPVVDVTDAPDDTVIGDRSFGSDPATVTAYAGAYAQGLRDAGVLPVLKHFPGHGRGSGDSHNGGVTTPPLDDLVGDDLVPYRTLVTQAPVGVMVGHLQVPGLTGSEPASLSKAAVNLLRTGTGYGAPPFDGPVFSDDLSGMAAISDRFGVSEAVLRTLQAGADIALWVTTKEVPAVLDRLEQALRAGELPMSAVDRSVVRVATMKGPNPGCGR,not soluble
12,MAGAMIEARGLVKRFVSGRIRRRVVEALKGVSFSVYEGEIYSFLGPNGAGKTTTVRILSTLLDPDGGEARVAGFDVVKERWEVRKRIGVMLSVERGFYWKLTGRENLYYFGRIYGIPQGELKSRIKEVLDLVGLTDLGGADKPFEEMSLGMKARLGLARVLLKDPEVLILDEPTLGLDPASARTIRGVIRSLASEGRTIFITTHNMVEAEMISDRVGIIIGGRIAMEGTPDELKRRVFSSINLEFRVKASGHAAKKFFYDVKGEYGNRIVGGVTFSDGILTFRVSVNRDEPAEPIIDRITRLAYQYRFKILEIKALEPSLEDVFVAVSESGEARSGRVKGSIAQRLEHHHHHH,soluble
13,MAGDCSSHWPVTNPPRGYLSSRRLLEHSTRSIGQTVIHTRDPCDGTGMGVAVIGASMTKFGQRDVWIRELLSQAGEECLTDAGVAPDDVEHLYVSNMASGEFEGQTGIMNLLAHDLGVLPAYSERVDQTSSSGGAGIYEAWQSVASGASEMTLLVGGEKMTHKTTGQATDIIASITHPDEYKHGVTLPSFAGMTARHYLERFDAPRESLARVAVKNHRNGVDNPKAQFQKEITMEKALESPIIADPLRLYDFCPITDGSAALMFTTEERAKEITDEYALVSGIGGATDTHVVHERDDPTIMGGVVESSKQAYEMAGLGPNDLDVAELHDMFTILEFLQLEGIGVADQGTAWEMAMDGVTAKDGELPINTSGGLKSKGHPLGASGVAQGVEIYEQLVGEAGPRQVEADTALACNVGGFGNCVITTIMEAAE,not soluble
14,MAGDPMIEVIGVRFKKAGKIYYFGPNGIEIKKGQNVIVETARGIEFGECVIGIRKISEEDIVAPLKSVLRLATEEDINKHKENKAKETEAFEICLKKIEEHNLVMKLIDVEYTFDNNKVIFYFTAEGRVDFRELVKDLATIFKTRIELRQIGVRDEAKMIGGLGPCGRPLCCSTFLGDFASVSIKMAKEQSLSLNPTKISGICGRLMCCLNYEQSTYEEIRKELPRVGSVVETELGKGEVVGNNVLKELVRVKLPRKNEEIIQDFKMYDVKLISGSYEGEVEDTNIRLEITDEADKALIKNLIKDNLEHHHHHH,soluble
15,MAGDPMKIMIFICGEGLGHTSRCLALGKELLAAGHEIEFGAYGYSRDLVEKTGYRIHEIPSEIKLVGKAGGFDLSGSIEATLKNARILGGPKVLKLIKDFKPDVVVSDSYYLGTLAAMLLNIPVYLIINQSNMEDFFKNRGVPIRLLGDLTKKFYREVFEKTDKIIIPDYPLPYTVCRKNLNFSPGLWEKLEHHHHHH,not soluble
16,MAGDPMKNKSLLLAVAISATLLAGCKNGVNGNLIASSGMSTYKAATLSDADVKALSNNACKQMDSENQLAGSKSKYTKRLSKIAKALGNNIDGTPVSYKVYMTSDINAWAMANGCVRVYSGLMDLMTDNEIEGVLGHELGHVSLGHSRKAMQTAYATLAARDAISATSGVAAQLSQSQLGDLAEGVINSAFSRSQESDADDFSYDLLKKRGINTQGLVTAFDKFATMDAGHAKSLMDSHPASADRAQHMRDRIAEDKKLEHHHHHH,soluble
17,MAGDPMSLPGLSAAADQTIKIGAQSMSESEIIASMLGQLIEHHTDLKTTTIKNLGSNAVQQQALMNGEIDIAATRYTGDALTGTLRMEPEKDPDKALALTQREFKKRYDLKWYDSYGFDNTYAFTVSKELADQYHLETVSDVKKWAPQLKLGVDNYWMKLKGNGYQDFTKTYGMTFGGTYPMQIGLVYDAVKSGKMDIVLAYSTDGRIKSYGLKMLKDDKQFFPPYDCSPVVPEKVLKEHPELEGIIKKMLGKIDTATMQELNYEVDGNLKEPSVVAKEYLEKHRYFESLEHHHHHH,soluble
18,MAGDPMTMRVCYRCGISEEEGGPLINGLCQVCFRKENPVLLLPSEINTELCQNCGSYKKRGVWIDPQNYELESLIFEVAENALLEALEESLDKVKEFEVVPWEELENINNIPVGKAFVGFIPVDYHIQYFPAVIVYRVRVKARLHELQLEPHDEIKETTVYVRQTVCPRCQRFLAGYYEAILQVRVEDREFTKEEREAVTKLVQEKVDEIMKKDRMGFIQDTIEKEEGIDFYMGSTSAARKLANVIREHFGGEISEAYELVGLDRMTSKEVYRTSVTVRLPKFRRGDIVEDRHGRIYKVENVSGKGMRLKNLETWESQHYDWKTIKREKIDKAEHEEKKALLISQTPREAQFMDMSTYETFEVLKPGVNLEEGQLYRLVKVKGRFYIKEKEGEELEHHHHHH,not soluble
19,MAGDPMTSLTYLQGYPEHLLAQVRALIAEQRLGAVLEKRYPGAHDYATDKALYHYTQELKSQFLRNAPPINKVMYDSKIHVLKNALGLHTAVSRVQGGKLKAKAEIRVATVFRNAPEPFLRMIVVHELAHLKEKDHNKAFYQLCCHMEPQYHQLEFDTRLWLTHQALSAQLEHHHHHH,not soluble
20,MAGDPMYKIGIDVGGTNTDAVILDHQLNLIHSVKVPTTDDIQTGIAGALNKVLAESAVDPTKVTHAMLGTTQCTNAIVERKKLAKVGVLRLGYPATASVLPYTAWPKDLVATLSETYALAHGGYEYDGQPLTALDEEELRGILASWRGEVEAIAVIGVFSSLKNDQELFVQALAKEVLGADVPVSCSSMIGSVGLIERENATILNAALHKVIKVTSEGFEQALEQEKIHHAQVYLCQNDGTLMSLTYAKQFPILTIACGPTNSIRGASYLAGLKDAVVLDVGGTTSDIGVLVDGFPRESSLAVDVGGVRTNFRMPDIVSIGVGGGSLVREQPDGSVTVGPDSVGYRITQEALVFGGTQLTTTDIAVRLGHAQVGDPSKVAHLDQAFAEKVYQKIGELVSEAIDRMKTSSADVTVVLVGGGSIIIPEELTGVKALIRNKNGAVANAIGASIAQISGQYEQIYVYSKIQRDAALTDAQEKAVQQAELAGAVPGTIELVEVEETPLAYHPENATRLRVKVVGNMYLEHHHHHH,soluble
